Patent US20220356230A1

Target: SARS-CoV-2 Spike Protein (RBD)(R319-F541).mmH, unmodified (SARS-CoV-2)
Experiment: Luminex, supernatant on bead-coupled RBD.mmH
Details: remark: other sources report otherwise

B1: mAb11006 (antibody, V domains shown)
VH: EVQLVESGGGLVQPGGSLRLSCAASGFIVSRNYMSWVRQAPGKGLEWVSVIYSGGSTFYADSVKGRFTISRHNSKNTLYLQMNSLKAEDTAVYYCARELRGYFDYWGQGTLVTVSS
VL: DIQLTQSPSFLSASVGDRVTITCWASQGISSYLAWYQQKPGKAPKLLIYAASTLQSGVPSRFSGSGSGTEFTLTISSLQPEDFATYYCQLLNSYPYTFGQGTKLEIK
  Binding signal (MFI): 2040 MFI
